Reference: patent US20200317768A1 (published 2020)

T1: human FcγRIIaH extracellular domain, C-terminal His-tag (human, UniProt P12318 34-217)
T1 construct: also called human FcγRIIa (type H); FcgRIIaH; not shown: His-tag added to the C-terminus
T1 sequence: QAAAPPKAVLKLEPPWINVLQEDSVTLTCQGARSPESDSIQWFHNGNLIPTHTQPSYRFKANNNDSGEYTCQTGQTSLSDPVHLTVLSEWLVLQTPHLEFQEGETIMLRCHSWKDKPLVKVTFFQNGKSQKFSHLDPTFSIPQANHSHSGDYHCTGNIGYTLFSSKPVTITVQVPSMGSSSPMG

T2: human FcγRIIb extracellular domain, C-terminal His-tag (human, UniProt P31994 43-217)
T2 construct: also called FcgRIIb; not shown: His-tag added to the C-terminus
T2 sequence: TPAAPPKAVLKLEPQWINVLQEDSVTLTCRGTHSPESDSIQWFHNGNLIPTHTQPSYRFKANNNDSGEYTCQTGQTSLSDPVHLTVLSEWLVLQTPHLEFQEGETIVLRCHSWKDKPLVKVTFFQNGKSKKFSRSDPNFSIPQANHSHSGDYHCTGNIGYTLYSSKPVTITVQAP

T3: human FcγRIIaR extracellular domain, C-terminal His-tag (human, UniProt P12318 34-217)
T3 construct: also called human FcγRIIa (type R); FcgRIIaR; not shown: His-tag added to the C-terminus
T3 chain: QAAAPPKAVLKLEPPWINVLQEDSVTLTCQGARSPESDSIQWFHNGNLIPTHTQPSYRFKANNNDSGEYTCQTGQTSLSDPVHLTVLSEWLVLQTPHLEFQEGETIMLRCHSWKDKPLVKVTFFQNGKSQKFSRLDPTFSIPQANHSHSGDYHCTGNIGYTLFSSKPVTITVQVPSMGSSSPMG


Tests used:
[1] = molecular target: T4, human FcγRIIIaV extracellular domain, C-terminal His-tag (human, UniProt P08637 17-208); experiment: SPR; KD of SG1 divided by KD of variant;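 further: relative to parent M103205H795-SG1 carrying the SG1 human heavy chain constant region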
T4 construct: also called FcgRIIIaV; not shown: His-tag added to the C-terminus
T4 sequence (P08637 17-208 F176V): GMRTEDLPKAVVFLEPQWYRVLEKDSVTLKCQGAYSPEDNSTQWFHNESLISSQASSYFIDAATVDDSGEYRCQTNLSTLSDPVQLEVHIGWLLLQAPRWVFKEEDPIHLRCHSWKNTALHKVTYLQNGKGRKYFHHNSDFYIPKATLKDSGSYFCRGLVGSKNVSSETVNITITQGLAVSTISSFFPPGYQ
Description: (§1) The kinetic analysis of interactions between these antibodies and FcγR was carried out using BIACORE® T200 or BIACORE® 4000 (GE Healthcare). HBS-EP+ (GE Healthcare) was used as the running buffer, and the measurement temperature was set to 25° C. A chip produced by immobilizing Protein A. Protein A/G or mouse anti-human IgG kappa light chain (BD Biosciences) onto a Series S Sensor Chip CM4 or CM5 (GE Healthcare) by the amine-coupling method was used. […] After the measurement, the antibody captured on the chip was washed off by allowing reaction with 10 mM glycine-HCl, pH1.5 and 25 mM NaOH so that the chip was regenerated and used repeatedly. The sensorgrams obtained as measurement results were analyzed by the 1:1 Langmuir binding model using the BIACORE® Evaluation Software to calculate the binding rate constant ka (L/mol/s) and dissociation rate constant kd (l/s), and the dissociation constant KD (mol/L) was calculated from these values. […] Regarding such interactions, KD values were calculated using the following 1:1 binding model described in BIACORE® T100 Software Handbook BR1006-48 Edition AE.
(§2) Human FcγRIIb-enhanced Fc variants with anti-myostatin variable region were constructed and their affinity for human FcγRs was evaluated. […] In addition, substitutions (Q311R/D413K or […]) were also introduced. The variants were expressed using M103202L1045-SK1 as light chain and their affinity to human FcγRs was analyzed according to the method shown in Example 34.

[2] = molecular target: T1, human FcγRIIaH extracellular domain, …; experiment: SPR; KD of SG1 divided by KD of variant;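 further: relative to parent M103205H795-SG1 carrying the SG1 human heavy chain constant region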
Description: as §1, §2

[3] = molecular target: T2, human FcγRIIb extracellular domain, …; experiment: SPR; KD of SG1 divided by KD of variant;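 further: relative to parent M103205H795-SG1 carrying the SG1 human heavy chain constant region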
Description: as §1, §2

[4] = molecular target: T3, human FcγRIIaR extracellular domain, …; experiment: SPR; KD of SG1 divided by KD of variant;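 further: relative to parent M103205H795-SG1 carrying the SG1 human heavy chain constant region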
Description: as §1, §2

[5] = molecular target: T4, human FcγRIIIaV extracellular domain, …; experiment: SPR (BIACORE), antibody captured, soluble FcgR as analyte, 25C
Description: as §1, §2

[6] = molecular target: T1, human FcγRIIaH extracellular domain, …; experiment: as above
Description: as §1, §2

[7] = molecular target: T2, human FcγRIIb extracellular domain, …; experiment: as above
Description: as §1, §2

[8] = molecular target: T3, human FcγRIIaR extracellular domain, …; experiment: as above
Description: as §1, §2

Row | KD fold (SG1 = 1) [1] | KD fold (SG1 = 1) [2] | KD fold (SG1 = 1) [3] | KD fold (SG1 = 1) [4] | Kd [5] | Kd [6] | Kd [7] | Kd [8] | Binder
1 | 0.007 fold | 0.015 fold | 14.5 fold | 0.09 fold | 110 µM | 50 µM | 0.4 µM | 12 µM | MS103240H795-TT32/M103202L1045-SK1 (antibody, human IgG1, kappa, CH = SG1 with L234Y/P238D/T250V/V264I/T307P/Q311R/A330K/P343R (EU numbering)) heavy: QVQLVESGGGLVQPGGSLRLSCAVSGIDLSHDDISWVRQAPGKGLEWVSIISYAGSTYYASWAKGRLTISKDTSKNQVVLTMTNMDPVDTATYYCARGVPAYSHGGDLWGQGTLVTVSSASTKGPSVFPLAPSSKSTSGGTAALGCLVKDYFPEPVTVSWNSGALTSGVHTFPAVLQSSGLYSLSSVVTVPSSSLGTQTYICNVNHKPSNTKVDKKVEPKSCDKTHTCPPCPAPEYLGGDSVFLFPPKPKDVLMISRTPEVTCVVIDVSHEDPEVKFNWYVDGVEVHNAKTKPREEQYNSTYRVVSVLPVLHRDWLNGKEYKCKVSNKALPKPIEKTISKAKGQRREPQVYTLPPSREEMTKNQVSLTCLVKGFYPSDIAVEWESNGQPENNYKTTPPVLDSDGSFFLYSKLTVDKSRWQQGNVFSCSVMHEALHNHYTQKSLSLSP light: DIVMTQSPATLSLSPGERATLSCTTSQSVYHENWLSWFQQKPGQPPKLLIYWASTLAYGVPSRFSGSGSGTDFTLTISSLQPEDAATYYCAGGYGGGRYAFGQGTKVEIKRTVAAPSVFIFPPSDEQLKSGTASVVCLLNNFYPREAKVQWKVDNALQSGNSQESVTEQDSKDSTYSLSSTLTLSKADYEKHKVYACEVTHQGLSSPVTKSFNRGEC
2 | 0.004 fold | 0.03 fold | 13.5 fold | 0.12 fold | 180 µM | 25 µM | 0.43 µM | 9 µM | MS103240H795-TT35/M103202L1045-SK1 (antibody, human IgG1, kappa, CH = SG1 with L234Y/P238D/T250V/V264I/S267A/T307P/Q311R/A330K/D413K (EU numbering)) heavy: QVQLVESGGGLVQPGGSLRLSCAVSGIDLSHDDISWVRQAPGKGLEWVSIISYAGSTYYASWAKGRLTISKDTSKNQVVLTMTNMDPVDTATYYCARGVPAYSHGGDLWGQGTLVTVSSASTKGPSVFPLAPSSKSTSGGTAALGCLVKDYFPEPVTVSWNSGALTSGVHTFPAVLQSSGLYSLSSVVTVPSSSLGTQTYICNVNHKPSNTKVDKKVEPKSCDKTHTCPPCPAPEYLGGDSVFLFPPKPKDVLMISRTPEVTCVVIDVAHEDPEVKFNWYVDGVEVHNAKTKPREEQYNSTYRVVSVLPVLHRDWLNGKEYKCKVSNKALPKPIEKTISKAKGQPREPQVYTLPPSREEMTKNQVSLTCLVKGFYPSDIAVEWESNGQPENNYKTTPPVLDSDGSFFLYSKLTVKKSRWQQGNVFSCSVMHEALHNHYTQKSLSLSP light: DIVMTQSPATLSLSPGERATLSCTTSQSVYHENWLSWFQQKPGQPPKLLIYWASTLAYGVPSRFSGSGSGTDFTLTISSLQPEDAATYYCAGGYGGGRYAFGQGTKVEIKRTVAAPSVFIFPPSDEQLKSGTASVVCLLNNFYPREAKVQWKVDNALQSGNSQESVTEQDSKDSTYSLSSTLTLSKADYEKHKVYACEVTHQGLSSPVTKSFNRGEC
3 | 0.002 fold | 0.018 fold | 16.1 fold | 0.09 fold | 440 µM | 42 µM | 0.36 µM | 12 µM | MS103240H795-TT33/M103202L1045-SK1 (antibody, human IgG1, kappa, CH = SG1 with L234Y/P238D/T250V/V264I/T307P/Q311R/A330K/D413K (EU numbering)) heavy: QVQLVESGGGLVQPGGSLRLSCAVSGIDLSHDDISWVRQAPGKGLEWVSIISYAGSTYYASWAKGRLTISKDTSKNQVVLTMTNMDPVDTATYYCARGVPAYSHGGDLWGQGTLVTVSSASTKGPSVFPLAPSSKSTSGGTAALGCLVKDYFPEPVTVSWNSGALTSGVHTFPAVLQSSGLYSLSSVVTVPSSSLGTQTYICNVNHKPSNTKVDKKVEPKSCDKTHTCPPCPAPEYLGGDSVFLFPPKPKDVLMISRTPEVTCVVIDVSHEDPEVKFNWYVDGVEVHNAKTKPREEQYNSTYRVVSVLPVLHRDWLNGKEYKCKVSNKALPKPIEKTISKAKGQPREPQVYTLPPSREEMTKNQVSLTCLVKGFYPSDIAVEWESNGQPENNYKTTPPVLDSDGSFFLYSKLTVKKSRWQQGNVFSCSVMHEALHNHYTQKSLSLSP light: DIVMTQSPATLSLSPGERATLSCTTSQSVYHENWLSWFQQKPGQPPKLLIYWASTLAYGVPSRFSGSGSGTDFTLTISSLQPEDAATYYCAGGYGGGRYAFGQGTKVEIKRTVAAPSVFIFPPSDEQLKSGTASVVCLLNNFYPREAKVQWKVDNALQSGNSQESVTEQDSKDSTYSLSSTLTLSKADYEKHKVYACEVTHQGLSSPVTKSFNRGEC
4 | 0.008 fold | 0.034 fold | 11.8 fold | 0.12 fold | 96 µM | 22 µM | 0.49 µM | 8.9 µM | MS103240H795-TT34/M103202L1045-SK1 (antibody, human IgG1, kappa, CH = SG1 with L234Y/P238D/T250V/V264I/S267A/T307P/Q311R/A330K/P343R (EU numbering)) heavy: QVQLVESGGGLVQPGGSLRLSCAVSGIDLSHDDISWVRQAPGKGLEWVSIISYAGSTYYASWAKGRLTISKDTSKNQVVLTMTNMDPVDTATYYCARGVPAYSHGGDLWGQGTLVTVSSASTKGPSVFPLAPSSKSTSGGTAALGCLVKDYFPEPVTVSWNSGALTSGVHTFPAVLQSSGLYSLSSVVTVPSSSLGTQTYICNVNHKPSNTKVDKKVEPKSCDKTHTCPPCPAPEYLGGDSVFLFPPKPKDVLMISRTPEVTCVVIDVAHEDPEVKFNWYVDGVEVHNAKTKPREEQYNSTYRVVSVLPVLHRDWLNGKEYKCKVSNKALPKPIEKTISKAKGQRREPQVYTLPPSREEMTKNQVSLTCLVKGFYPSDIAVEWESNGQPENNYKTTPPVLDSDGSFFLYSKLTVDKSRWQQGNVFSCSVMHEALHNHYTQKSLSLSP light: DIVMTQSPATLSLSPGERATLSCTTSQSVYHENWLSWFQQKPGQPPKLLIYWASTLAYGVPSRFSGSGSGTDFTLTISSLQPEDAATYYCAGGYGGGRYAFGQGTKVEIKRTVAAPSVFIFPPSDEQLKSGTASVVCLLNNFYPREAKVQWKVDNALQSGNSQESVTEQDSKDSTYSLSSTLTLSKADYEKHKVYACEVTHQGLSSPVTKSFNRGEC
